Experimental data published in PMC3246216 (2012).
Changes are numbered by the printed parent chain. Each block holds one binder with its values, some of them ahead of it.

Tests used:
Assay in all cases: ITC
Gcn4 101-134 [1] = biological target: T1, Gcn4 101-134 (Saccharomyces cerevisiae, UniProt P03069)
T1 chain: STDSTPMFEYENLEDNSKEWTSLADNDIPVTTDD

Gcn4 101-134 [2] = biological target: T2, Gcn4 101-134 (Saccharomyces cerevisiae, UniProt P03069)
T2 chain: T1 chain with A24F

Gcn4 101-134 [3] = biological target: T3, Gcn4 101-134 (Saccharomyces cerevisiae, UniProt P03069)
T3 chain: T1 chain with W20A, A24F

Kd (Gcn4 101-134 [1]): 65 µM
Kd (Gcn4 101-134 [2]): 10.1 µM
Kd (Gcn4 101-134 [3]): 56 µM
B1: Gal11/Med15 158-238 (protein)
chain: QRRQLTPQQQQLVNQMKVAPIPKQLLQRIPNIPPNINTWQQVTALAQQKLLTPQDMEAAKEVYKIHQQLLFKARLQQQQAQ

Kd (Gcn4 101-134 [2]): 76 µM
B2: Gal11/Med15 158-238 (protein)
chain: B1 chain with M56A
